# Experimental data from patent US20220119492A1 (MEDIKINE, published 2022).
# Bridge positions count the residues as written; N and C are the ends. Ends that are not written are not given here.
# T1: human IL-2Rβ (CD122 protein, Fc Tag) (27-239) (human, UniProt P14784 27-239)
# T1 construct: range 27-239; Bought protein; also called hu-IL-2Rβ subunit; IL-2Rβ subunit; not shown: Fc tag of the bought protein
# T1 sequence (looked up): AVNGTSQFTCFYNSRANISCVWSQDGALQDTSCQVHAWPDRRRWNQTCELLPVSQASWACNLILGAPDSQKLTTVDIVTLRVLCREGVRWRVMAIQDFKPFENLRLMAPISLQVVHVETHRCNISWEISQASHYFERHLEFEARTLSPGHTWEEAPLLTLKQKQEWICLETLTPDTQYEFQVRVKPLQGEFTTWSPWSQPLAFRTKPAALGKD
# Molecular target: T1, human IL-2Rβ (CD122 protein, Fc Tag) …
# Assay: phage ELISA competition
# Outline: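 Competitive binding ELISA in which a phage tracer competes with test ligands for human IL-2Rβ-Fc; IC50 is derived from the absorbance signal across the ligand dilution series. Without washing, 50 μL of phage tracer was added for 45 min at 4° C. Bound phage was detected with TMB for 1 to 15 min at 25° C, followed by stop solution and absorbance at 450 nm.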
row,Binder,IC50 [µM]
1,EIFKDCLFANVGELCEIFPS [SEQ ID NO 2873],< 100
2,NWFHDCFLARVGDLCDLFLD (disulfide 6-15 (inferred)) [SEQ ID NO 2874],< 100
3,YSFKDCYFAKVGELCELFLW [SEQ ID NO 2875],< 100
4,EFFHDCYVARVGELCDLFGW [SEQ ID NO 2876],< 100
5,SYLCWLDHWGVICEED [SEQ ID NO 2877],< 100
6,WYTCMMDWLGVHCELE [SEQ ID NO 2878],< 100
7,QMVWWDCWSTQEGPVCELNWTA [SEQ ID NO 2879],< 100
8,YWCSVWQLGSVCEMNNEETQ [SEQ ID NO 2880],< 100
9,WTCWLTQLGYDCNLDVVDQSLG [SEQ ID NO 2881],< 100
10,DGSWYTCWFTQLGEWCEQDDAK [SEQ ID NO 2882],< 100
11,EFWGWQCWQEPLGWSCDLEWMD [SEQ ID NO 2883],< 100
12,LVDCFKVKVGELCDLF (disulfide 4-13 (inferred)) [SEQ ID NO 2886],< 100
13,VHDCFIAQVGDLCDLF [SEQ ID NO 2887],< 100
14,WPCWAALGELCDLD [SEQ ID NO 2888],< 100
15,WPCWALGELCDLD [SEQ ID NO 2889],< 100
16,WPCWLGELCDLD [SEQ ID NO 2890],< 100
17,WYPCWGELCDLD [SEQ ID NO 2891],< 100

# Molecular target: T1, human IL-2Rβ (CD122 protein, Fc Tag) …
# Assay: competition ELISA, peptide tracer
# Procedure: (§1) Binding of Fc fusions to IL-2Rβ and IL-2Rγc were measured using a competition binding ELISA with biotinylated peptide/NeutrAvidin-HRP tracer. ELISA plate was prepared as described in Example 27.
# (§2) The plate was washed 4 times with PT (1×PBS, 0.05% Tween® 20) buffer. Fifty (50) μL of IL-2R ligands serially diluted in PBT was added to appropriate wells then incubated at 4° C. for 1 hr.
# (§3) At the appropriate time, the precomplexed bn-peptide/NA-HRP tracer was diluted to 2-fold its predetermined binding EC80 (typically 30 to 10 nM) without washing. fifty (50) μL of bn-peptide/NA-HRP tracer was added to each well and incubated at 4° C. for 45 mins.
Binder,binding result,IC50 [µM]
GGWYPCWMAQLGELCDLDGGGGSGGVVCQDWEGVELCWQGG [IL-2Rβγc ligand having SEQ ID NO: 1263],binds,
GGRYVHDCFIAQVGDLCDLFLH [SEQ ID NO 3137],,< 100
GGELLVDCFKVKVGELCDLFFG [SEQ ID NO 3114],,< 100
GGELLVDCFKVKVGELCDLFF [SEQ ID NO 3107],,< 100
GGELLVDCFKVKVGELCDLF [SEQ ID NO 3122],,< 100
ELLVDCFKVKVGELCDLFFGGG [SEQ ID NO 3124],,< 100
LLVDCFKVKVGELCDLFFGGG [SEQ ID NO 3125],,< 100
LVDCFKVKVGELCDLFFGGG [SEQ ID NO 3126],,< 100
VDCFKVKVGELCDLFFGGG [SEQ ID NO 3127],,< 100

# Molecular target: T2, cynomolgus monkey IL-2Rβ subunit (cynomolgus monkey)
# T2 construct: Bought protein; also called cyno-IL-2Rβ subunit
# Assay: competition ELISA, peptide tracer
# Procedure: as §1, §2, §3
# T2 sequence (Q38J85 whole entry): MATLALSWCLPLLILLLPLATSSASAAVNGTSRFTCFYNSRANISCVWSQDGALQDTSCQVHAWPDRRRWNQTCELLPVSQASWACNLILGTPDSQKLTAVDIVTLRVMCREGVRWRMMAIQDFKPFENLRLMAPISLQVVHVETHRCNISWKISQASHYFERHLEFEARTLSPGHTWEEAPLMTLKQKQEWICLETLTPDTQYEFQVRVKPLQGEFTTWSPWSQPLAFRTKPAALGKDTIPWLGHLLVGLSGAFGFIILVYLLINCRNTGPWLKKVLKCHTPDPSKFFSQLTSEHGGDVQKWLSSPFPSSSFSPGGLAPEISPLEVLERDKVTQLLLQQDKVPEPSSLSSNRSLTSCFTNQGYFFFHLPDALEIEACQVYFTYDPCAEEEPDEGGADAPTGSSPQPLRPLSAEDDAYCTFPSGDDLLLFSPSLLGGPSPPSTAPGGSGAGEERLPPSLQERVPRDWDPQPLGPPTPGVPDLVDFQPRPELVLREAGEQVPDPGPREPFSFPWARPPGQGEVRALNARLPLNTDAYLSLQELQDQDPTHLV
row,Binder,IC50 [µM]
1,GGRYVHDCFIAQVGDLCDLFLH [SEQ ID NO 3137],< 100
2,GGELLVDCFKVKVGELCDLFFG [SEQ ID NO 3114],< 100
3,GGELLVDCFKVKVGELCDLFF [SEQ ID NO 3107],< 100
4,GGELLVDCFKVKVGELCDLF [SEQ ID NO 3122],< 100
5,ELLVDCFKVKVGELCDLFFGGG [SEQ ID NO 3124],< 100
6,LLVDCFKVKVGELCDLFFGGG [SEQ ID NO 3125],< 100
7,LVDCFKVKVGELCDLFFGGG [SEQ ID NO 3126],< 100
8,VDCFKVKVGELCDLFFGGG [SEQ ID NO 3127],< 100
